Experiments:
Test in all cases: IEDB peptide-MHC binding, purified MHC/competitive/radioactivity; filed as Kd, often an IC50 or EC50 that approximates it; ≥ and ≤ were set here for values at or beyond the usual limits of such assays
[1] = target: HLA-A*03:01
[2] = target: HLA-A*68:01
[3] = target: HLA-A*11:01
[4] = target: HLA-A*31:01
[5] = target: HLA-A*33:01
[6] = source organism: Vaccinia virus WR
[7] = source organism: SARS coronavirus Tor2
[8] = source organism: Lassa virus Josiah
[9] = source organism: Dengue virus 2 Jamaica/1409/1983
[10] = source organism: Dengue virus 4 Philippines/H241/1956
[11] = source organism: Mammarenavirus juninense
[12] = source organism: Vaccinia virus Copenhagen
[13] = source organism: Dengue virus 3 Martinique/1243/1999
[14] = source organism: Dengue virus 1 Brazil/97-11/1997

## MVSVSDFRDY
[1]; [6]
  Kd: ≥ 70100 nM
[2]; [6]
  Kd: 3960 nM
[3]; [6]
  Kd: 17700 nM
[4]; [6]
  Kd: ≥ 70000 nM
[5]; [6]
  Kd: ≥ 70000 nM

## AIMQVFFGY
[1]; [7]
  Kd: 0.695 nM
[2]; [7]
  Kd: 191 nM
[3]; [7]
  Kd: 1.39 nM
[4]; [7]
  Kd: 452 nM
[5]; [7]
  Kd: 1400 nM

## KTWMDIEGR
[1]; [8]
  Kd: 8460 nM
[2]; [8]
  Kd: 1820 nM
[3]; [8]
  Kd: 1130 nM
[4]; [8]
  Kd: 120 nM
[5]; [8]
  Kd: 1710 nM

## YLGSANMDWR
[1]; [6]
  Kd: 850 nM
[2]; [6]
  Kd: 1070 nM
[3]; [6]
  Kd: 921 nM
[4]; [6]
  Kd: 1350 nM
[5]; [6]
  Kd: 3690 nM

## IFSPENKAFK
[1]; [6]
  Kd: 96.4 nM
[2]; [6]
  Kd: 184 nM
[3]; [6]
  Kd: 756 nM
[4]; [6]
  Kd: 699 nM
[5]; [6]
  Kd: 2470 nM

## SLVENNFFTK
[1]; [6]
  Kd: 229 nM
[2]; [6]
  Kd: 119 nM
[3]; [6]
  Kd: 9.71 nM
[4]; [6]
  Kd: 388 nM
[5]; [6]
  Kd: 704 nM

## TLNHVLALKY
[1]; [6]
  Kd: 168 nM
[2]; [6]
  Kd: 13200 nM
[3]; [6]
  Kd: 1150 nM
[4]; [6]
  Kd: ≥ 69100 nM
[5]; [6]
  Kd: ≥ 52700 nM

## KVVDLGCGR
[4]; [9]
  Kd: 1.29 nM

## NVQFVDINR
[1]; [6]
  Kd: ≥ 23000 nM
[2]; [6]
  Kd: 0.399 nM
[3]; [6]
  Kd: 193 nM
[4]; [6]
  Kd: 38.1 nM
[5]; [6]
  Kd: 12.7 nM

## RFNVAITRAK
[1]; [7]
  Kd: 168 nM
[2]; [7]
  Kd: 168 nM
[3]; [7]
  Kd: 179 nM
[4]; [7]
  Kd: 64 nM
[5]; [7]
  Kd: 7770 nM

## ILARNEEGR
[1]; [6]
  Kd: 16600 nM
[2]; [6]
  Kd: 87 nM
[3]; [6]
  Kd: ≥ 77900 nM
[4]; [6]
  Kd: 4570 nM
[5]; [6]
  Kd: 1050 nM

## TQVYIAVNDK
[1]; [7]
  Kd: 186 nM
[2]; [7]
  Kd: 1330 nM
[3]; [7]
  Kd: 720 nM
[4]; [7]
  Kd: 6720 nM
[5]; [7]
  Kd: 9360 nM

## KLDNHDILTY
[1]; [6]
  Kd: 104 nM
[2]; [6]
  Kd: 16400 nM
[3]; [6]
  Kd: 602 nM
[4]; [6]
  Kd: 9280 nM
[5]; [6]
  Kd: ≥ 70000 nM

## MISYGGGWR
[2]; [10]
  Kd: 111 nM

## NARMATMLEY
[1]; [6]
  Kd: 169 nM
[2]; [6]
  Kd: 455 nM
[3]; [6]
  Kd: 34.3 nM
[4]; [6]
  Kd: 734 nM
[5]; [6]
  Kd: ≥ 69100 nM

## HQNSKKTTK
[1]; [7]
  Kd: 1100 nM
[2]; [7]
  Kd: ≥ 77700 nM
[3]; [7]
  Kd: 2080 nM
[4]; [7]
  Kd: 1980 nM
[5]; [7]
  Kd: ≥ 77700 nM

## GKQYIHCFRK
[1]; [11]
  Kd: 2210 nM
[2]; [11]
  Kd: 1730 nM
[3]; [11]
  Kd: 1510 nM
[4]; [11]
  Kd: 3670 nM
[5]; [11]
  Kd: ≥ 29500 nM

## KQMYRKFSR
[1]; [12]
  Kd: 209 nM
[2]; [12]
  Kd: 1210 nM
[3]; [12]
  Kd: 78.8 nM
[4]; [12]
  Kd: 4.97 nM
[5]; [12]
  Kd: 2130 nM

## TFQLLNMIK
[1]; [6]
  Kd: 20.8 nM
[2]; [6]
  Kd: 11.5 nM
[3]; [6]
  Kd: 19.5 nM
[4]; [6]
  Kd: 326 nM
[5]; [6]
  Kd: 102 nM

## GIALGLMALK
[1]; [13]
  Kd: 219 nM

## DYMPSMKRFR
[4]; [9]
  Kd: 43.5 nM
[5]; [9]
  Kd: 1.97 nM

## GSQLAKRFSK
[3]; [14]
  Kd: 108 nM

## RVMANNVKKK
[1]; [6]
  Kd: 103 nM
[2]; [6]
  Kd: 539 nM
[3]; [6]
  Kd: 96 nM
[4]; [6]
  Kd: 760 nM
[5]; [6]
  Kd: ≥ 28200 nM

## AAISKLGINY
[1]; [6]
  Kd: 320 nM
[2]; [6]
  Kd: 279 nM
[3]; [6]
  Kd: 357 nM
[4]; [6]
  Kd: 1400 nM
[5]; [6]
  Kd: 1210 nM

## DIISRRDQR
[2]; [9]
  Kd: 36.1 nM
[5]; [9]
  Kd: 105 nM

## DTDIFSPENK
[1]; [6]
  Kd: 5880 nM
[2]; [6]
  Kd: 42.2 nM
[3]; [6]
  Kd: 1680 nM
[4]; [6]
  Kd: ≥ 22500 nM
[5]; [6]
  Kd: 16800 nM

## STQQNKLVIR
[1]; [6]
  Kd: 17900 nM
[2]; [6]
  Kd: 631 nM
[3]; [6]
  Kd: 2240 nM
[4]; [6]
  Kd: 154 nM
[5]; [6]
  Kd: 4470 nM

## MSAAIKDNR
[2]; [9]
  Kd: 14.4 nM
[4]; [9]
  Kd: 8.82 nM

## EIINFTISMR
[1]; [6]
  Kd: 1610 nM
[2]; [6]
  Kd: 1.12 nM
[3]; [6]
  Kd: 2020 nM
[4]; [6]
  Kd: 428 nM
[5]; [6]
  Kd: 7.83 nM

## IMSIGFEAR
[1]; [6]
  Kd: 4950 nM
[2]; [6]
  Kd: 221 nM
[3]; [6]
  Kd: 3140 nM
[4]; [6]
  Kd: 30.3 nM
[5]; [6]
  Kd: 367 nM

## EVMRGKFGK
[2]; [13]
  Kd: 55.7 nM
[3]; [13]
  Kd: 850 nM

## ALMSIISTFH
[1]; [8]
  Kd: 617 nM
[5]; [8]
  Kd: 3610 nM

## SFNHVLKRK
[1]; [7]
  Kd: 111 nM
[2]; [7]
  Kd: ≥ 24700 nM
[3]; [7]
  Kd: 1790 nM
[4]; [7]
  Kd: 375 nM
[5]; [7]
  Kd: 6790 nM

## LALGFFLRK
[1]; [13]
  Kd: 3.33 nM
[3]; [13]
  Kd: 9.58 nM

## MLNILNRRR
[4]; [9]
  Kd: 8.37 nM

## GTSWFITQR
[1]; [7]
  Kd: 318 nM
[2]; [7]
  Kd: 13 nM
[3]; [7]
  Kd: 6.53 nM
[4]; [7]
  Kd: 8.28 nM
[5]; [7]
  Kd: 1240 nM

## MSAAIKDQK
[2]; [10]
  Kd: 50.9 nM
[3]; [10]
  Kd: 480 nM

## GSCVYNMMGK
[1]; [13]
  Kd: 104 nM
[3]; [13]
  Kd: 25.8 nM

## TLFVWYFWQK
[1]; [14]
  Kd: 24.6 nM
[3]; [14]
  Kd: 54.8 nM

## SQGAGWSLK
[3]; [9]
  Kd: 77.7 nM

## KSIQKNTIFK
[3]; source organism: Mammarenavirus machupoense
  Kd: 5.35 nM

## LMSAAIKDSK
[1]; [14]
  Kd: 66.7 nM

## VSTGSQLAK
[1]; [14]
  Kd: 127 nM
[3]; [14]
  Kd: 332 nM

## TLSLDYAWK
[1]; [14]
  Kd: 181 nM

## WYFWQKKKQR
[5]; [14]
  Kd: 8.19 nM

## EINKNPKYK
[1]; source organism: Homo sapiens
  Kd: 753 nM

## CVTQVLMMR
[2]; [9]
  Kd: 100 nM
[5]; [9]
  Kd: 350 nM

## YVFSGDPLK
[1]; [10]
  Kd: 84.4 nM
[2]; [10]
  Kd: 12.4 nM
[3]; [10]
  Kd: 159 nM

## TTKRDLGMSK
[3]; [13]
  Kd: 115 nM

Source: the Immune Epitope Database (IEDB)
